Patent publication US20140377215A1

Legend:
Assay in all cases: 1H-15N HSQC NMR titration of 15N-labeled CBD with mini-collagen
[1] = target: [PROXYL-(POG)4POA(POG)5]3
[2] = target: [PROXYL-(POG)5POA(POG)4]3
[3] = target: [PROXYL-(POG)6POA(POG)3]3
[4] = target: [PROXYL-(POG)3POA(POG)6]3

Measured: Kd

Chain of collagen-binding domain (CBD), s3b (Gly893-Lys1008) peptide derived from Clostridium histolyticum cl (Q9X721 1003-1118 limits assumed): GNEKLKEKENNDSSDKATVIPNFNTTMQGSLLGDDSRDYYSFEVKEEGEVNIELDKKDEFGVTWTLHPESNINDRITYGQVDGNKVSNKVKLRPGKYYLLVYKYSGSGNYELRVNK

collagen-binding domain (CBD), s3b (Gly893-Lys1008) peptide derived from Clostridium histolyticum cl (from UniProt Q9X721 1003-1118)
< 100 µM: all assays above
